# PMC7214462
# Experiments:
# [1] = system: LdCsm effector complex, wild type (Csm1/Cas10-Csm2-Csm3-Csm4-Csm5) (Lactobacillus delbrueckii subsp. bulgaricus ND04); test: EMSA; settings: 5 nM 5'-32P S10-60 ssDNA in cleavage buffer (composition not in material; cOA assay buffer is 50 mM Tris-Cl pH 6.8 …)
# [2] = system: LdCsm Csm3D34A (Lactobacillus delbrueckii subsp. bulgaricus ND04); test: EMSA; settings: 100 nM effector, 500 nM PTR; 5 nM 5'-32P S10-60 ssDNA in cleavage buffer (composition not in material; cOA assay buffer is 50 mM Tris-Cl pH 6.8 …)
sequence,measurement,setting,value
ACTATAGGGAGAATAGAATGCCCCCATTATACAATATCTACGTTTTAGATGACCCCCCCC / ACGAGAACUUCAAAGCUUAGAUACCCUGGAGG / GGUGUUAAGUCUGGUUUCCCUCCAGGGUAUCUAAGCUUUGAAAAAAAA [S10-60 ssDNA + S1 crRNA + CTR+6],binding signal (fraction of CTR+6 complex),"[1]; 100 nM LdCsm, 500 nM CTR+6, reference",1
ACTATAGGGAGAATAGAATGCCCCCATTATACAATATCTACGTTTTAGATGACCCCCCCC / ACGAGAACUUCAAAGCUUAGAUACCCUGGAGG / GGUGUUAAGUCUGGUUUCCCUCCAGGGUAUCUAAGCUUUGAAG [S10-60 ssDNA + S1 crRNA + NTR+1],binding signal (% of full activity),"[1]; 100 nM LdCsm, 500 nM NTR+1",70
ACTATAGGGAGAATAGAATGCCCCCATTATACAATATCTACGTTTTAGATGACCCCCCCC / ACGAGAACUUCAAAGCUUAGAUACCCUGGAGG / GGUGUUAAGUCUGGUUUCCCUCCAGGGUAUCUAAGCUUUGAAA [S10-60 ssDNA + S1 crRNA + CTR+1],binding signal (% of full activity),"[1]; 100 nM LdCsm, 500 nM CTR+1",90
ACTATAGGGAGAATAGAATGCCCCCATTATACAATATCTACGTTTTAGATGACCCCCCCC / ACGAGAACUUCAAAGCUUAGAUACCCUGGAGG / UGUUAAGUCUGGUUUCCCUCCAGGGUAUCUAAGCUUUGAA [S10-60 ssDNA + S1 crRNA + PTR (S1-40)],binding signal (fold vs non-homologous RNA),[2],3
same,binding signal (% of CTR-LdCsm),"[1]; 100 nM LdCsm, 500 nM PTR",55
same,binding signal (fold vs non-homologous RNA),"[1]; 100 nM LdCsm, 500 nM PTR",2
ACTATAGGGAGAATAGAATGCCCCCATTATACAATATCTACGTTTTAGATGACCCCCCCC / ACGAGAACUUCAAAGCUUAGAUACCCUGGAGG / UGUUAAGUCUGGUUUCCCUCCAGGGUAUCUAAGCUUUGAAAAAAAA [S10-60 ssDNA + S1 crRNA + CTR (S1-46)],binding signal,"[1]; 25-100 nM effector, 500 nM CTR, reference",100 % of WT
ACTATAGGGAGAATAGAATGCCCCCATTATACAATATCTACGTTTTAGATGACCCCCCCC / ACGAGAACUUCAAAGCUUAGAUACCCUGGAGG / AUAGAAUGCCCCCAUUAUACAAUAUCUACGUUUUAGAUGAAAAAAA [S10-60 ssDNA + S1 crRNA + S10 RNA (non-homologous)],binding signal (relative to WT with non-homologous RNA),"[1]; 100 nM LdCsm, 400 nM S10 RNA, little binding, reference",1
